Experimental data as given in article PMC2921846.

Target: PKCα-YFP (mouse) (UniProt P20444)
Experiment: FRET or BRET

FRET efficiency: 7.19%
Substance: Erk-CFP (from UniProt P63085 1-358) (natural protein)
